Publication PMC11206678, “Peptide-Alkoxyamine Drugs: An Innovative Approach to Fight Schistosomiasis: “Digging Their Graves with Their Forks”” (Pathogens, 2024)

How the values were obtained:
Vero cells = assay type: cell-based; conditions: 48 h
Experimental: A non-cancer line of Vero cells was used to determine the cytotoxicity of the compound against mammalian cells. They were evaluated at a final DMSO concentration of 0.5%. The culture medium was MEM (Dutscher, Bernolsheim, France) supplemented with 10% fetal bovine serum (Fisher Scientific, Illkirch, France), 1X non-essential amino acids (Fisher Scientific, Illkirch, France), 100 U/mL, 100 µg/mL penicillin/streptomycin (Fisher Scientific, Illkirch, France), and 2 mM L-glutamine (Fisher Scientific, Illkirch, France) at 37 °C in a humidified 5% CO2 atmosphere. Vero cells (100 µL of 10^5 cells/mL per well) were plated in 96-well plates for 24 h then treated with 100 µL of compound dilutions (in duplicate) during 48 h. All molecules were tested from 5 nM to 50 µM. Each well was then examined under the microscope to detect any precipitate formation before the supernatant was removed by flicking the plate. A volume of 100 µL of 0.5 mg/mL in MEM from a stock solution at 5 mg/mL of PBS-dissolved MTT (3-(4,5-dimethylthiazol-2-yl)-2,5-diphenyltetrazolium bromide, Sigma Aldrich/Merck, Darmstadt, Germany) was then added to each well [20].
After incubation for 1 h at 37 °C and 5% CO2 the supernatant was removed and 100 µL of DMSO were added. Plates were gently shaken to dissolve formazan crystals resulting from the MTT reduction by living cells and read at 570 nm with the VICTOR Nivo plate reader (Perkin Elmer, Waltham, MA, USA). CC50 values were determined using GraphPad Prism 7 software (San Diego, CA, USA).

[1] = test system: Schistosoma mansoni adult worms; test: Viability of Schistosoma mansoni adult worms in vitro; assay type: cell-based, Schistosoma mansoni NMRI strain; conditions: 37 °C
Experimental: Experiments on the viability of Schistosoma mansoni adult worms. In vitro tests were performed on Schistosoma mansoni NMRI strains. This parasite is lab maintained on Biomphalaria glabrata (BRE strain) as intermediate mollusc host and Golden Hamster (Janvier Labs, Le Genest-Saint-Isle, France) as definitive vertebrate host. Methods, for molluscs’ and hamsters’ infection and for parasite recovery, were previously described. Adult worms were recovered by hepatic perfusion technique between 42 and 47 days post hamster exposition to parasite larvae. Worms were carefully collected and disposed in 12-well Falcon® plate containing 2 mL of RPMI 1640 (supplemented with L-glutamine and Hepes 25 mM). The plates containing a minimum of 15 worms by well were then placed in an incubator chamber at 37 °C and 5% CO2. The worms sex ratio was almost balanced in each well. The drug was first dissolved in DMSO (Sigma-Aldrich) to give a 100 mg/mL mother solution. Then the stock solution was complemented with Tween 80 and RPMI to obtain the following final ratio dilution: RPMI 1640/Tween 80/DMSO and 1000/0.95/3.8, v/v/v.
All molecules were tested at a final concentration of 100 µg/mL and 10 µg/mL. A negative control consisted in adding the same RPMI 1640/Tween 80/DMSO solution, but without any drug and a positive control consisted in adding praziquantel. All molecules and control were performed in duplicates of well. The worm viability was checked after 1, 2, 3, 4, 5, 6, 7, 8, 24, 48, and 72 h after adding the molecule.

[2] = Homolysis kinetics of alkoxyamines by EPR (growth of nitroxide); assay type: physicochemical; conditions: mixture of diastereoisomers; for Homolysis rate constant kd: 0.1 mM alkoxyamine, O2 as alkyl radical scavenger; for Activation energy Ea: by Equation (2) from kd and T, A = 2.4 10^14 s^−1
Experimental: Preparation of alkoxyamines and reference samples. All reagents including anhydrous solvents used for the chemical synthesis were purchased from commercially available sources such as Merck, TCI, and Fluorochem, and were used without further purification. All air and/or water-sensitive reactions were carried out under an argon atmosphere with dry solvents using standard syringe-cannula/septa techniques. Routine monitoring of reactions was performed using Merck Silica gel 60 F254, aluminum-supported TLC plates; spots were visualized using UV light and ethanolic acidic para-anisaldehyde solution or ethanolic phosphomolybdic solution, followed by heating. Purifications by means of column chromatography were performed with Silica gel 60 (230–400 mesh). ^1H, ^13C, and ^19F NMR spectra were obtained in CDCl3, MeOD (with residual H2O), D2O, DMSO-d6, or C6D6 solutions on by using Bruker AC400 (400 MHz) and Bruker AC300 (300 MHz) spectrometers. High-resolution mass spectra (HRMS) have been performed using a SYNAPT G2 HDMS (Waters) mass spectrometer equipped with a pneumatically assisted atmospheric pressure ionization (API) source. The sample was ionized in positive electrospray mode under the following conditions: electrospray voltage: 2.8 kV; port voltage: 20 V; Nebulizing gas flow rate (nitrogen): 100 L/h or in negative electrospray mode under the following conditions: electrospray voltage: −2.27 kV; port voltage: −20 V; Nebulizing gas flow rate (nitrogen): 100 L/h. The mass spectra (MS) were obtained with a time-of-flight (TOF) analyzer. The exact mass measurements were carried out in triplicate with external calibration. Homolysis constants were measured by EPR on an EMX Bruker spectrometer from 10^−4 M samples in tertbutyl benzene or in a mixture of H2O-nPrOH (1:1; v:v).
Kinetic experiments. Kinetics of A1–A7 (Scheme 2) for series L and D are performed by monitoring the growth of nitroxide by Electron Paramagnetic Resonance (X-band EMX Bruker machine) in tert-butylbenzene and a water/n-PrOH (for a good solubility of the alkoxyamine) as solvents and using O2 as alkyl radical scavenger to suppress the back reaction (kc in Scheme 2) as already reported. Homolysis rate constants kd are given by Equation (1) ([nitroxide]∞ = [alkoxyamine]0 = 0.1 mM, see Table S1) and the subsequent activation energies Ea given by Equation (2). (1) lnnitroxide∞−nitroxidet/nitroxide∞=−kd·t, (2) Ea=−RTlnkd/A.

[3] = Table S1, dose at 100 μg/ml, unit not given in Table S1 (h in Table 2)

CC(ON1C(C)(C)CCCC1(C)C)c1ccc(NC(=O)[C@@H](Cc2ccccc2)NC(=O)[C@H](NC(=O)[C@H](N)Cc2ccccc2)C(C)C)cc1 (stereo partly drawn) [A5D, (2R)-2-((R)-2-amino-3-phenylpropanamido)-3-methyl-N-((2R)-1-oxo-3-phenyl-1-((4-(1-((2,2,6,6-tetramethylpiperidin-1-yl)oxy)ethyl)phenyl)amino)propan-2-yl)butanamide]
CC50 (Vero cells): 2.2 ± 0.3 µM | time to kill all parasites [1, 3]: 4 | time to reach the death of half of the population of worms [1, 3]: 1 | Activity/toxicity towards schistosomes (in words) ([1]; adult worms, 100 μg/mL): toxic to schistosomes | Homolysis rate constant kd ([2]; C–ON bond homolysis in t-BuPh, EPR, T (°C): A1L 128.0, A3L 125.0, A5L 130.0, A6L 125, A7L 126.5, A1D 122.5, A3D 119.8, A5D 130): 11.6 10^−4 s^−1 | Homolysis rate constant kd ([2]; C–ON bond homolysis in water/n-PrOH v/v 1:1, EPR, T (°C): A1L 95.1, A3L 94.5, A4L 94.6, A5L 94.0, A6L 94.8, A7L 94.3, A1D 93.5, A3D 92.6, A4D 95.0, A5D 94.6): 1.3 10^−4 s^−1 | Activation energy Ea ([2]; in t-BuPh): 31.72 kcal/mol | Activation energy Ea ([2]; in water/n-PrOH v/v 1:1): 30.71 kcal/mol
